Source: publication doi:10.64898/2025.12.30.697075
Where “and” joins values, the source holds several entries; their conditions need not be identical. Identical values can stand only once.

Columns and labels:
[1] = target: pennycress (Thlaspi arvense) biotin carboxylase (BC) subunit of the plastid heteromeric acetyl-CoA carboxylase (Thlaspi arvense (field pennycress)); assay: cryo-EM structure
[2] = target: pennycress (Thlaspi arvense) biotin carboxylase (BC) subunit of the plastid heteromeric acetyl-CoA carboxylase (Thlaspi arvense (field pennycress)); assay: cross-linking

stoichiometry N [1]: 2 and 4 and 6
stoichiometry N [2]: 2 and 4
Substance: pennycress (Thlaspi arvense) biotin carboxylase (BC) subunit of the plastid heteromeric acetyl-CoA carboxylase (enzyme)
